Holding throughout (test): EMSA
On the technique in general: In EMSA bound probe runs differently from free probe, usually more slowly.

In one data set the target is T1, Cus2p Y48D (Saccharomyces cerevisiae, UniProt P53830 1-285, Y48D).
T1 sequence: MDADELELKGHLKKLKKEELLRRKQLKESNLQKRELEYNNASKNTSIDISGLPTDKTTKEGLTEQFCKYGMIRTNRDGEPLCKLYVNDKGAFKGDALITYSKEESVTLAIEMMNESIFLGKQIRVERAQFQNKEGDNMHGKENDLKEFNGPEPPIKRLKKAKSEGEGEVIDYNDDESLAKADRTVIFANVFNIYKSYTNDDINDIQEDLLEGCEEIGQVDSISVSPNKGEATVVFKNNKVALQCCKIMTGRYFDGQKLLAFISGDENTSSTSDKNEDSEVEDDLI

The target in data set [1] is T2, Cus2p WT (Saccharomyces cerevisiae, UniProt P53830 1-285).
T2 sequence: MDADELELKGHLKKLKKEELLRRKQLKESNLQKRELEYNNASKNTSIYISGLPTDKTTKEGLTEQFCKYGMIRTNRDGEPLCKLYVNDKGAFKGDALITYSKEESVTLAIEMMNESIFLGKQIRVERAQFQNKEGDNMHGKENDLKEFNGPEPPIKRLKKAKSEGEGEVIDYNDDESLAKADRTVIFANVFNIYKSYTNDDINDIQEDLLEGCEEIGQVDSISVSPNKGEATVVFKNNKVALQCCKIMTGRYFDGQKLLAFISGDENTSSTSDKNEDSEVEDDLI

In data set [2] the target is T2, Cus2p WT. This is another data set of the same source.
Data set [3] deals with T2, Cus2p WT. This is another data set of the same source.

We go through three molecules from article PMC4712673.

Where two headings read alike, the source gives them in different places.

B1: stem IIc-stabilized U2 core RNA (structured_RNA)
RNA: GUAGUAUCUGUUCUUUUCAAUGUAACAACUGAAAUGACCUCAAUGAGGCUCAUUACCUUUUCAGUUGUUACAAUACACAUUUUUUGG
Take B1: the binding result with Cus2p Y48D and in the data set with Cus2p WT [1] was “binds” each time.

B2: G53A U2 core RNA (structured_RNA)
RNA: GUAGUAUCUGUUCUUUUCAAUGUAACAACUGAAAUGACCUCAAUGAGGCUCAUUACCUUUUAAUUUGUUACAAUACACAUUUUUUGG
Turning to B2, the binding result in the data set with Cus2p WT [2] is recorded as “binds”.

B3: stem IIa-stabilized U2 core RNA (structured_RNA)
RNA: GUAGUAUCUGUUCUUUGCGGUGUAACAACCGCAAUGACCUCAAUGAGGCUCAUUACCUUUUAAAUACACAUUUUUUGG
Turning to B3, the binding result with Cus2p WT [3] is on record as “binds”.
